The term Tm denotes the temperature at the midpoint of the melting transition.

For the series the following is noted: Paenibacillus macerans, pH 6, Sodium cacodylate 2 mM, reversible: yes, whole UniProt chain shown; for unfolding free energy: 25 °C, GdnHCl; for heat capacity change of unfolding / unfolding enthalpy (van 't Hoff) / Tm / unfolding enthalpy (calorimetric): Thermal.

“And” between values parts separate entries of the source, which are not always exact repeats. Equal entries are not always repeated.

B1: Beta-glucanase wild type, P23904 (protein)
chain: MKKKSCFTLVTTFAFSLIFSVSALAGSVFWEPLSYFNRSTWEKADGYSNGGVFNCTWRANNVNFTNDGKLKLGLTSSAYNKFDCAEYRSTNIYGYGLYEVSMKPAKNTGIVSSFFTYTGPAHGTQWDEIDIEFLGKDTTKVQFNYYTNGVGGHEKVISLGFDASKGFHTYAFDWQPGYIKWYVDGVLKHTATANIPSTPGKIMMNLWNGTGVDDWLGSYNGANPLYAEYDWVKYTSN
For the protein B1, where the note is “CD”, the unfolding free energy is 10.3 kcal/mol and 9.01 kcal/mol and 8.6 kcal/mol; the melting temperature (Tm) was 51.2 °C and 47.7 °C and 49.7 °C; the “heat capacity change of unfolding” value is 2.01 kcal/mol/K and 1.6 kcal/mol/K and 1.7 kcal/mol/K; the “unfolding enthalpy (van 't Hoff)” value is 154 kcal/mol and 145 kcal/mol and 135 kcal/mol. Besides, for the setting “DSC, CaCl2 1 mM”, the unfolding free energy was 10.4 kcal/mol and 10.5 kcal/mol; the “heat capacity change of unfolding” value was 2.2 kcal/mol/K and 1.79 kcal/mol/K and 2.44 kcal/mol/K; the “unfolding enthalpy (calorimetric)” value was 78.2 kcal/mol and 156 kcal/mol and 87 kcal/mol. Further, for the setting “DSC”, the unfolding free energy is 10.8 kcal/mol and 9.89 kcal/mol and 8.41 kcal/mol; the Tm was 51.2 °C and 49.3 °C and 46.6 °C; the “heat capacity change of unfolding” value was 2.01 kcal/mol/K and 1.6 kcal/mol/K and 1.7 kcal/mol/K; the “unfolding enthalpy (calorimetric)” value was 161 kcal/mol and 146 kcal/mol and 143 kcal/mol. Besides, where the note is “CD, CaCl2 1 mM”, the “heat capacity change of unfolding” value is 2.2 kcal/mol/K and 1.79 kcal/mol/K; the “unfolding enthalpy (van 't Hoff)” value was 162 kcal/mol and 169 kcal/mol and 183 kcal/mol.

The record behind these values is FireProtDB (doi:10.1111/j.1432-1033.1995.tb20520.x).
